Experimental data taken from IntAct's records for PubMed 20427285.

B1: Protein Z-dependent protease inhibitor (Homo sapiens), Q9UK55 (parent)
chain: MKVVPSLLLSVLLAQVWLVPGLAPSPQSPETPAPQNQTSRVVQAPKEEEEDEQEASEEKASEEEKAWLMASRQQLAKETSNFGFSLLRKISMRHDGNMVFSPFGMSLAMTGLMLGATGPTETQIKRGLHLQALKPTKPGLLPSLFKGLRETLSRNLELGLTQGSFAFIHKDFDVKETFFNLSKRYFDTECVPMNFRNASQAKRLMNHYINKETRGKIPKLFDEINPETKLILVDYILFKGKWLTPFDPVFTEVDTFHLDKYKTIKVPMMYGAGKFASTFDKNFRCHVLKLPYQGNATMLVVLMEKMGDHLALEDYLTTDLVETWLRNMKTRNMEVFFPKFKLDQKYEMHELLRQMGIRRIFSPFADLSELSATGRNLQVSRVLQRTVIEVDERGTEAVAGILSEITAYSMPPVIKVDRPFHFMIYEETSGMLLFLGRVVNPTLL

Assays:
proz_human PROZ, P22891 [1] = variants of: B1; conditions: with proz_human PROZ
Chain of proz_human PROZ, P22891 (P22891 whole entry): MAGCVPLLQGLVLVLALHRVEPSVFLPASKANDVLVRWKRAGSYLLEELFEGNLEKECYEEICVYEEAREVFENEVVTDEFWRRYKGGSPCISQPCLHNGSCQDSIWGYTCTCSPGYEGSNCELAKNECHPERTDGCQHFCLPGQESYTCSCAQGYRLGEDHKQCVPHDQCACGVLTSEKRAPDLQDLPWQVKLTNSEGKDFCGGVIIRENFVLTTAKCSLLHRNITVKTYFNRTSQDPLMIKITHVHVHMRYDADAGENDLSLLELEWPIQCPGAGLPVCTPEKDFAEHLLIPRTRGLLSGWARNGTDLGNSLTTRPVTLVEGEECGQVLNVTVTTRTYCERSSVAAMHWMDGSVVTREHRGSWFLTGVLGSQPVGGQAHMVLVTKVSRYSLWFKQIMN

fa10_human F10, P00742 = variants of: B1; conditions: with fa10_human F10, P00742
proz_human PROZ, P22891 [2] = variants of: B1; conditions: with proz_human PROZ; remark: listed apart in the source

| Variant | effect of a mutation on the interaction (proz_human PROZ, P22891 [1]) | effect of a mutation on the interaction (fa10_human F10, P00742) | effect of a mutation on the interaction (proz_human PROZ, P22891 [2]) |
| --- | --- | --- | --- |
| MKVVPSLLLSVLLAQVWLVPGLAPSPQSPETPAPQNQTSRVVQAPKEEEEDEQEASEEKASEEEKAWLMASRQQLAKETSNFGFSLLRKISMRHDGNMVFSPFGMSLAMTGLMLGATGPTETQIKRGLHLQALKPTKPGLLPSLFKGLRETLSRNLELGLTQGSFAFIHKDFDVKETFFNLSKRYFDTECVPMNFRNASQAKRLMNHYINKETRGKIPKLFDEINPETKLILVDYILFKGKWLTPFDPVFTEVDTFHLDKYKTIKVPMMYGAGKFASTFDKNFRCHVLKLPYQGNATMLVVLMEKMGDHLALEDYLTTDLVETWLRNMKTRNMAVFFPKFKLDQKYEMHELLRQMGIRRIFSPFADLSELSATGRNLQVSRVLQRTVIEVDERGTEAVAGILSAITAYSMPPVIKVDRPFHFMIYEETSGMLLFLGRVVNPTLL [E334A;E404A] | with no effect | with no effect |  |
| MKVVPSLLLSVLLAQVWLVPGLAPSPQSPETPAPQNQTSRVVQAPKEEEEDEQEASEEKASEEEKAWLMASRQQLAKETSNFGFSLLRKISMRHDGNMVFSPFGMSLAMTGLMLGATGPTETQIKRGLHLQALKPTKPGLLPSLFKGLRETLSRNLELGLTQGSFAFIHKDFDVKETFFNLSKRYFDTECVPMNFRNASQAKRLMNHYINKETRGKIPKLFDEINPETKLILVDYILFKGKWLTPFDPVFTEVDTFHLDKYKTIKVPMMYGAGKFASTFDKNFRCHVLKLPYQGNATMLVVLMEKMGDHLALEDYLTTDLVETWLRNMKTRNMAVFFPKFKLDQKYEMHELLRQMGIRRIFSPFADLSELSATGRNLQVSRVLQRTVIEVDERGTEAVAGILSEITAYSMPPVIKVDRPFHFMIYEETSGMLLFLGRVVNPTLL [E334A] | with no effect | with no effect |  |
| MKVVPSLLLSVLLAQVWLVPGLAPSPQSPETPAPQNQTSRVVQAPKEEEEDEQEASEEKASEEEKAWLMASRQQLAKETSNFGFSLLRKISMRHDGNMVFSPFGMSLAMTGLMLGATGPTETQIKRGLHLQALKPTKPGLLPSLFKGLRETLSRNLELGLTQGSFAFIHKDFDVKETFFNLSKRYFDTECVPMNFRNASQAKRLMNHYINKETRGKIPKLFDEINPETKLILVDYILFKGKWLTPFDPVFTEVDTFHLDKYKTIKVPMMYGAGKFASTFDKNFRCHVLKLPYQGNATMLVVLMEKMGDHLALEDYLTTDLVETWLRNMKTRNMEVFFPKFKLDQKYEMHELLRQMGIRRIFSPFADLSELSATGRNLQVSRVLQRTVIEVDERGTEAVAGILSEITARSMPPVIKVDRPFHFMIYEETSGMLLFLGRVVNPTLL [Y408R] |  | decreasing interaction strength |  |
| MKVVPSLLLSVLLAQVWLVPGLAPSPQSPETPAPQNQTSRVVQAPKEEEEDEQEASEEKASEEEKAWLMASRQQLAKETSNFGFSLLRKISMRHAGNMVFSPFGMSLAMTGLMLGATGPTETQIKRGLHLQALKPTKPGLLPSLFKGLRETLSRNLELGLTQGSFAFIHKDFDVKETFFNLSKRYFDTECVPMNFRNASQAKRLMNHYINKETRGKIPKLFDEINPETKLILVDYILFKGKWLTPFDPVFTEVDTFHLAAYKTIKVPMMYGAGKFASTFDKNFRCHVLKLPYQGNATMLVVLMEKMGDHLALEAYLTTDLVETWLRNMKTRNMEVFFPKFKLDQKYEMHELLRQMGIRRIFSPFADLSELSATGRNLQVSRVLQRTVIEVDERGTEAVAGILSEITAYSMPPVIKVDRPFHFMIYEETSGMLLFLGRVVNPTLL [D95A;D259A;K260A;D314A] |  | with no effect |  |
| MKVVPSLLLSVLLAQVWLVPGLAPSPQSPETPAPQNQTSRVVQAPKEEEEDEQEASEEKASEEEKAWLMASRQQLAKETSNFGFSLLRKISMRHDGNMVFSPFGMSLAMTGLMLGATGPTETQIKRGLHLQALKPTKPGLLPSLFKGLRETLSRNLELGLTQGSFAFIHKDFDVKETFFNLSKRYFDTECVPMNFRNASQAKRLMNHYINKETRGKIPKLFDEINPETKLILVDYILFKGKWLTPFDPVFTEVDTFHLDKYKTIKVPMMYGAGKFASTFDKNFRCHVLKLPYQGNATMLVVLMEKMGDHLALEDYLTTDLVETWLRNMKTRNMEVFFPKFKLDQKYEMHELLRQMGIRRIFSPFADLSELSATGRNLQVSRVLQRTVIEVDERGTEAVAGILSAITAYSMPPVIKVDRPFHFMIYEETSGMLLFLGRVVNPTLL [E404A] | with no effect | with no effect |  |
| MKVVPSLLLSVLLAQVWLVPGLAPSPQSPETPAPQNQTSRVVQAPKEEEEDEQEASEEKASEEEKAWLMASRQQLAKETSNFGFSLLRKISMRHAGNMVFSPFGMSLAMTGLMLGATGPTETQIKRGLHLQALKPTKPGLLPSLFKGLRETLSRNLELGLTQGSFAFIHKDFDVKETFFNLSKRYFDTECVPMNFRNASQAKRLMNHYINKETRGKIPKLFDEINPETKLILVDYILFKGKWLTPFDPVFTEVDTFHLAAYKTIKVPMMYGAGKFASTFDKNFRCHVLKLPYQGNATMLVVLMEKMGDHLALEDYLTTDLVETWLRNMKTRNMEVFFPKFKLDQKYEMHELLRQMGIRRIFSPFADLSELSATGRNLQVSRVLQRTVIEVDERGTEAVAGILSAITAYSMPPVIKVDRPFHFMIYEETSGMLLFLGRVVNPTLL [D95A;D259A;K260A;E404A] | disrupting interaction strength |  | disrupting interaction strength |
